Laboratory results reported in paper PMC12533313 (2025).

Molecular target: α‐synuclein preformed fibrils (UniProt P37840 1-140)
Assay: SPR

- Kd: 6.67 µM
B1: Recombinant mouse 24p3R protein (receptor)
chain: MPSARFGRRGIVLLTLGLVGPCGVGGAAAGSSTGIMALRFLLGFLLAGVDLGVYLMRLELCDPTQRLRVALAGELVGVGGHFLFLGLALVSKDWRFLQRMITAPCILFLFYGWPGLFLESARWLIVKRQIEEAQSVLRILAERNRPHGQMLGEEAQEALQELENTCPLPATSTFSFASLLNYRNIWKNLLILGFTNFIAHAIRHCYQPVGGGGSPSDFYLCSLLASGTAALACVFLGVTVDRFGRRGILLLSMTLTGIASLVLLGLWDYLNDAAITTFSVLGLFSSQASAILSTLLASEVIPTTVRGRGLGLIMALGALGGLSCPAQRLHMGHGAFLQHVVLAACALLCILSIMLLPETKRKLLPEVLRDGELCRRPSLLRQPPPNRCDHVPLLATPNPAL
